A word on the Kd: it is the concentration at which binding is half-saturated. Read a low Kd as a tighter complex.

What all share (experiment): SPR
Experiment [1] deals with CH2-4.10 N299A aglycosylated anti-mesothelin human IgG1 antibody (human).
Experiment [2] deals with CH2-4.15 N297A aglycosylated anti-mesothelin human IgG1 antibody (human).
In experiment [3] the target is CH2-4.16 N298A aglycosylated anti-mesothelin human IgG1 antibody (human).
Experiment [4] addresses CH2-4.16 N298A-tubulysin (MSLN, huG1).
The target of experiment [5] is CH2-4.19 N301A aglycosylated anti-mesothelin human IgG1 antibody (human).
In experiment [6] the target is CH2-4.20 N300A aglycosylated anti-mesothelin human IgG1 antibody (human).
The target of experiment [7] is N297A aglycosylated anti-mesothelin human IgG1 antibody (human).

For the substance “hCD64 (from UniProt P12314 16-374) (receptor)”, the fold weaker binding than the corresponding glycosylated species in experiment [1], in experiment [2], in experiment [3], in experiment [5], in experiment [6] and in experiment [7] was 100 fold each time. This substance came in with a Kd in experiment [4] of 172 nM.

Values taken from article PMC9026278.
